Assay [1] has as its target human FcγRIIIa of allotype 158F, GPI-anchored (human) (UniProt P08637). As to the kind of experiment: flow cytometry on cells; IgG pre-complexed with equimolar goat F(ab')2 against its light chain (anti-κ for Fog-1, anti-λ for B2), on CHO cells expressing a single human FcγRII or FcγRIII; complexes detected with FITC anti-goat IgG; mean fluorescence of ≥12 000 cells. (In flow cytometry, cells or beads pass a laser one at a time.)

The target in assay [2] is human FcγRIIIa of allotype 158V, GPI-anchored (human). Described as above.

UniProt P08637, sequence (P08637 17-254): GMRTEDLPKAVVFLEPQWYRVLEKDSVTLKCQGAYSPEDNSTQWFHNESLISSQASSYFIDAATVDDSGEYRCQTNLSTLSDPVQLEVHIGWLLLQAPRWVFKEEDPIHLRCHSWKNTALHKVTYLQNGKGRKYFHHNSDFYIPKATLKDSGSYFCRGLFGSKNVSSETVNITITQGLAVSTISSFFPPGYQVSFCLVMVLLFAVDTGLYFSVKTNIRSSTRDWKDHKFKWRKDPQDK

Regarding B2 G1Δnab (antibody), the fold lower binding than G1 in assay [1] worked out at 100 fold; in assay [2] it was 50 fold.
